Source: publication PMC6522533 (2019)

Assays:
Experiment in all cases: GST pull-down, anti-Smad7 immunoblot
[1] = target: T1, GST-β-catenin aa422–683 (Mus musculus (Mouse), UniProt Q02248)
T1 chain: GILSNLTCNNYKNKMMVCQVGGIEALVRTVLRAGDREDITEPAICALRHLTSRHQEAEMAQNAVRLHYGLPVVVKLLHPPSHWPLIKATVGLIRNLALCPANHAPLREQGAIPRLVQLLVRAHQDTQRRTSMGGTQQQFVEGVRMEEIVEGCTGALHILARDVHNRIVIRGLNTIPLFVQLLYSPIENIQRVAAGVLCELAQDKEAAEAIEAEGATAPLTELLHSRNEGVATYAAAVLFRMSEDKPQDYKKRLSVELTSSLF

[2] = target: T2, GST-β-catenin aa120–683 (Mus musculus (Mouse), UniProt Q02248)
T2 chain: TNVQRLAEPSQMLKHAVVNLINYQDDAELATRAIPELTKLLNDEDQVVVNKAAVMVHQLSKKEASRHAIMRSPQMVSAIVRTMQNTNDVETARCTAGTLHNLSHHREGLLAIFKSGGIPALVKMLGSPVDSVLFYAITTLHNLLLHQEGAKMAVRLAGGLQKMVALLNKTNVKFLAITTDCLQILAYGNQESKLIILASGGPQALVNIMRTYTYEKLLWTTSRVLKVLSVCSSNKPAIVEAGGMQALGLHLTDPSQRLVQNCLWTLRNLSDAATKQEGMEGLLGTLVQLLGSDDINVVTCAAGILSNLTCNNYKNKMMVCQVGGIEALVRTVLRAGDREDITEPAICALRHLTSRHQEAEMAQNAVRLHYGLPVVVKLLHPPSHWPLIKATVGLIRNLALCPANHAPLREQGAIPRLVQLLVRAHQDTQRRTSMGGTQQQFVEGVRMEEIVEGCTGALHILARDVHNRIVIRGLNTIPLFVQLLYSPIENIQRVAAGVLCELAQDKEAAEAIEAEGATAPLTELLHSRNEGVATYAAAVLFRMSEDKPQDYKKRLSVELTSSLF

[3] = target: T3, GST-β-catenin aa575–683 (Mus musculus (Mouse), UniProt Q02248)
T3 chain: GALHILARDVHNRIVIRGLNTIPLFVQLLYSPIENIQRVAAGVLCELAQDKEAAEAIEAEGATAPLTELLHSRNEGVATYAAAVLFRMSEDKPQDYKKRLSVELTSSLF

[4] = target: T4, GST-β-catenin aa575–696 (Mus musculus (Mouse), UniProt Q02248)
T4 chain: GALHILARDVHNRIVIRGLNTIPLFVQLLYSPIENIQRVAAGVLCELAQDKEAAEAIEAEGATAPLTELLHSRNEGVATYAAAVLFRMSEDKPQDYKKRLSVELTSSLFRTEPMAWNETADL

[5] = target: T5, GST-β-catenin aa1–574 (Mus musculus (Mouse), UniProt Q02248)
T5 chain: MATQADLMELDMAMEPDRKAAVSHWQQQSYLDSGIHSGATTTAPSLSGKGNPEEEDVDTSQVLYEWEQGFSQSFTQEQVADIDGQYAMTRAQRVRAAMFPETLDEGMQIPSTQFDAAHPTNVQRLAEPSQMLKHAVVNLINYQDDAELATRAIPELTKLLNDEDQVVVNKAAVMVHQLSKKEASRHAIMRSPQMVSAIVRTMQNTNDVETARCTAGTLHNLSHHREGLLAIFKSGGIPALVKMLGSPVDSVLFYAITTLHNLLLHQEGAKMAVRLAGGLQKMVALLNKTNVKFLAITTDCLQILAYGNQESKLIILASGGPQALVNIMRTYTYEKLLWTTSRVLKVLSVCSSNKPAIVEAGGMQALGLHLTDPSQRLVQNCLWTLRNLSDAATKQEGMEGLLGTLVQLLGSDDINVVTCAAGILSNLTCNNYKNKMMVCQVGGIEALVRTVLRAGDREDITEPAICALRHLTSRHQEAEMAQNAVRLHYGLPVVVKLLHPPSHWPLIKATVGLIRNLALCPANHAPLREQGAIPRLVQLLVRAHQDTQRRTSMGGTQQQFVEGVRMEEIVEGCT

[6] = target: T6, GST-β-catenin aa1–106 (Mus musculus (Mouse), UniProt Q02248)
T6 chain: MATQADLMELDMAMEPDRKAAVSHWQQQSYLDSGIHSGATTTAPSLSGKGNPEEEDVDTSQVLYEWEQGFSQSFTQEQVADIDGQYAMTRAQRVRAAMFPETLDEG

- binding result [1]: binds
- binding result [2]: binds
- binding result [3]: binds
- binding result [4]: binds
- binding result [5]: no binding
- binding result [6]: no binding
B1: Smad7 (GST tag removed by thrombin) (protein)
chain: MFRTKRSALVRRLWRSRAPGGEDEEEGVGGGGGGGELRGEGATDGRAYGAGGGGAGRAGCCLGKAVRGAKGHHHPHPPTSGAGAAGGAEADLKALTHSVLKKLKERQLELLLQAVESRGGTRTACLLLPGRLDCRLGPGAPASAQPAQPPSSYSLPLLLCKVFRWPDLRHSSEVKRLCCCESYGKINPELVCCNPHHLSRLCELESPPPPYSRYPMDFLKPTAGCPDAVPSSAETGGTNYLAPGGLSDSQLLLEPGDRSHWCVVAYWEEKTRVGRLYCVQEPSLDIFYDLPQGNGFCLGQLNSDNKSQLVQKVRSKIGCGIQLTREVDGVWVYNRSSYPIFIKSATLDNPDSRTLLVHKVFPGFSIKAFDYEKAYSLQRPNDHEFMQQPWTGFTVQISFVKGWGQCYTRQFISSCPCWLEVIFNSR
